B1: human recombinant mesothelin (MSLN), residues 296-606, His tag (domain or fragment, UniProt Q13421 296-606, looked up)
chain: EVEKTACPSGKKAREIDESLIFYKKWELEACVDAALLATQMDRVNAIPFTYEQLDVLKHKLDELYPQGYPESVIQHLGYLFLKMSPEDIRKWNVTSLETLKALLEVNKGHEMSPQVATLIDRFVKGRGQLDKDTLDTLTAFYPGYLCSLSPEELSSVPPSSIWAVRPQDLDTCDPRQLDVLYPKARLAFQNMNGSEYFVKIQSFLGGAPTEDLKALSQQNVSMDLATFMKLRTDAVLPLTVAEVQKLLGPHVEGLKAEERHRPVRDWILRQRQDDLDTLGLGLQGGIPNGYLVLDLSMQEALSGTPCLLGP

Key:
[1] = target: VH-Fc 3C9 (VH 3C9 fused with human IgG1 Fc, bivalent) (human); test: SPR
[2] = target: VH-Fc 3C9-YF750 (human); test: ELISA
[3] = target: B1; test: SPR
[4] = target: B1; test: ELISA
[5] = target: mouse MSLN (Mus musculus, UniProt Q61468); test: ELISA
Sequence of mouse MSLN (Q61468 36-600): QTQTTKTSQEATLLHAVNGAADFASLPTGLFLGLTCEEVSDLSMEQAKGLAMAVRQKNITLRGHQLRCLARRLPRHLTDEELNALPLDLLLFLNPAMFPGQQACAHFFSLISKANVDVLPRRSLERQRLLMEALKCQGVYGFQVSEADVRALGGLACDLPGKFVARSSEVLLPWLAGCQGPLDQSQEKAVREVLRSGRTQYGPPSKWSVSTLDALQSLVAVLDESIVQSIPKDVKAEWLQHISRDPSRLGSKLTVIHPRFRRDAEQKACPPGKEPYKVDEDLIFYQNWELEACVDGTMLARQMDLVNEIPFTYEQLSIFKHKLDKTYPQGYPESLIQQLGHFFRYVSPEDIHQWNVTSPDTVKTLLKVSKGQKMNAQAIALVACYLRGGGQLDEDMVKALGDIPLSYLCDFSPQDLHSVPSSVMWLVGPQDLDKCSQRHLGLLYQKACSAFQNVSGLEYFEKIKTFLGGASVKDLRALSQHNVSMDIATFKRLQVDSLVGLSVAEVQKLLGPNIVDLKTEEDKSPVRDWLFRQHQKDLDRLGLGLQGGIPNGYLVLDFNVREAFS

Kd [1] | binding result [2] | Kd [3] | EC50 [4] | binding result [5] | Binder
7 nM | binds |  |  |  | B1
 |  | < 3 nM | < 10 nM | no binding | VH 3C9 (human antibody heavy chain variable domain) (VHH) VHH: DVQLVESGGGVVQPGRSLRLSCAASGFTFSSYAMHWVRQAPGKGLEWVSSISGNSLYKYYADSVKGRFTISRDDSTNTLYLQMNSLRAEDTATYYCTRHWAVGNWGQGTLVTVSS

Reference: article PMC10522976 (Molecular Therapy Oncolytics, 2023)
